Values belong to the substance of their own block, whether it stands above or below them.
Key:
[1] = target: Hyper-IL-6 (designer cytokine consisting of covalently linked IL-6 and sIL-6R) (human) (UniProt P08887); experiment: cell-based or functional assay
Target sequence in this assay (P08887 20-323 limits assumed, chain 1 of 2): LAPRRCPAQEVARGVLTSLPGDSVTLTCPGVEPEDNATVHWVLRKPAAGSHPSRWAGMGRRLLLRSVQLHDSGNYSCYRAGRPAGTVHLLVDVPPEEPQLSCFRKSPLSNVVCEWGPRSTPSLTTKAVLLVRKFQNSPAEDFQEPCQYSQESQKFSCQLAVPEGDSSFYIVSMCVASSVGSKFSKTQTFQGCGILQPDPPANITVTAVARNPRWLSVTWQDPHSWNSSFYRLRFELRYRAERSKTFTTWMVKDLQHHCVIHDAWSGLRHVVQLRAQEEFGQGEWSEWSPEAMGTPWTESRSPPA
Target sequence in this assay (P05231 30-212 limits assumed, chain 2 of 2, further chain): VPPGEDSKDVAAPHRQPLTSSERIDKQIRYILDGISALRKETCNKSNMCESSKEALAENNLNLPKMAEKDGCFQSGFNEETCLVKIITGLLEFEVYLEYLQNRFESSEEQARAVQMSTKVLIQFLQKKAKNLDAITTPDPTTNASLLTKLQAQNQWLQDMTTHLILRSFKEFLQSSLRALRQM

[2] = target: human IL-6/sIL-6R complex (interleukin-6 plus soluble interleukin-6 receptor) (human) (UniProt P05231); experiment: cell-based or functional assay
[3] = target: Hyper-IL-6 (designer cytokine consisting of covalently linked IL-6 and sIL-6R) (human) (UniProt P08887); experiment: SPR, ProteOn XPR36, mutein immobilised, Hyper-IL-6 80 to 2.5 nM in flow, 25 C
Target sequence in this assay (P08887 20-323 limits assumed, chain 1 of 2): as the sequence (P08887 20-323 limits assumed, chain 1 of 2) above
Target sequence in this assay (P05231 30-212 limits assumed, chain 2 of 2, further chain): as the sequence (P05231 30-212 limits assumed, chain 2 of 2, further chain) above

[4] = target: human gp130 on the BAF3 cell surface (human) (UniProt P40189); experiment: cell-based or functional assay
Chain of human gp130 on the BAF3 cell surface (human) (P40189 23-918): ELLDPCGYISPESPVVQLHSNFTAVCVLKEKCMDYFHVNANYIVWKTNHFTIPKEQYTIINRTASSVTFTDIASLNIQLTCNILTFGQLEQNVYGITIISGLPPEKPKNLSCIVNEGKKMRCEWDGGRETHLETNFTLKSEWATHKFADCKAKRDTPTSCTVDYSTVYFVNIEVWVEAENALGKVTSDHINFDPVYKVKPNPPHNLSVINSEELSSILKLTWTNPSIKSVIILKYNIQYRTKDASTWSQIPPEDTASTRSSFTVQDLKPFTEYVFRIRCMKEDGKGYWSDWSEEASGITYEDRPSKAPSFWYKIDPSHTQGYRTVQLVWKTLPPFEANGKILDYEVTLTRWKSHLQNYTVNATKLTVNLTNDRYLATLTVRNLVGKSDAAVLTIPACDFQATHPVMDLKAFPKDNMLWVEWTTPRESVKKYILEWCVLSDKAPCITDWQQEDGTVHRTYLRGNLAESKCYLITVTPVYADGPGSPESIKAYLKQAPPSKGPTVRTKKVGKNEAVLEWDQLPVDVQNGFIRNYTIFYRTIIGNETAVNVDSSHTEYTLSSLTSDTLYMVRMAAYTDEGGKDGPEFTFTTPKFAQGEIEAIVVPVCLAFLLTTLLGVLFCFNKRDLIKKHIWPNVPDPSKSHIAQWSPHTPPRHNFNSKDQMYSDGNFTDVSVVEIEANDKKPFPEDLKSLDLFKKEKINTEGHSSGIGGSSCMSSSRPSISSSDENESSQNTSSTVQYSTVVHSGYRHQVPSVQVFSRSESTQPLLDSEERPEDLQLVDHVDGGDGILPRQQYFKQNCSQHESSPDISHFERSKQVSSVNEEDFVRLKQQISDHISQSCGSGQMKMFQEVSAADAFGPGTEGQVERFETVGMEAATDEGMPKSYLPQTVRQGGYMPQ

[5] = target: Hyper-IL-6 (designer cytokine consisting of covalently linked IL-6 and sIL-6R) (human) (UniProt P08887); experiment: SPR; conditions: Fc fusion
Target sequence in this assay (P08887 20-323, chain 1 of 2): as the sequence (P08887 20-323 limits assumed, chain 1 of 2) above
Target sequence in this assay (P05231 30-212, chain 2 of 2, further chain): as the sequence (P05231 30-212 limits assumed, chain 2 of 2, further chain) above

Chain of human IL-6/sIL-6R complex (interleukin-6 plus soluble interleukin-6 receptor) (human) (P05231 30-212 limits assumed, chain 1 of 2): as the sequence (P05231 30-212 limits assumed, chain 2 of 2, further chain) above
Chain of human IL-6/sIL-6R complex (interleukin-6 plus soluble interleukin-6 receptor) (human) (P08887 20-358 limits assumed, chain 2 of 2, further chain): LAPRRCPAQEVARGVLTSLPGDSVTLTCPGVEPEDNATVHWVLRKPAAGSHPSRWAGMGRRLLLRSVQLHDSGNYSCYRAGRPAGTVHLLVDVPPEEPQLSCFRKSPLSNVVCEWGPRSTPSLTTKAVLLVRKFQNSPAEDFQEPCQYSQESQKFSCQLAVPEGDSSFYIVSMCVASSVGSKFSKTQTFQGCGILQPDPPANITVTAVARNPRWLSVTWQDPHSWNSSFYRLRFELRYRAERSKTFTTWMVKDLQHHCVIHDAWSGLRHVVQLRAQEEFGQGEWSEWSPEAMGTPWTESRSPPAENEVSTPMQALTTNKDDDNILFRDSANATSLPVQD

- IC50 of inhibition of BAF3/gp130 proliferation, fold lower than wild type sgp130Fc (Cell Titer-Blue assay) [1]: > 3 fold
- IC50 of inhibition of BAF3/gp130 proliferation, fold lower than wild type sgp130Fc (MTS assay) [2]: 3 fold
- fold increase of the affinity constant KD against wild type sgp130Fc [3]: 4 fold
Substance: sgp130Fc triple mutein Thr102Tyr/Gln113Phe/Asn114Leu (T102Y/Q113F/N114L) (from UniProt P40189 23-619) (Fc fusion)

- amount needed for the same proliferation signal in BAF3/gp130 cells, against human IL-6/sIL-6R [4]: 3 fold
Substance: murine IL-6/sIL-6R complex (from UniProt P08505 25-211; P22272 20-364) (ligand)

Substance: sgp130Fc triple mutein Thr102Tyr/Gln113Phe/Asn114Leu (T102Y/Q113F/N114L) (from UniProt P40189 23-619)
- Kd [5]: 0.122 nM
